The record followed here is article PMC8238519 (Biochemical Journal, 2021).

Assay [1] concerns the target Chlamydomonas reinhardtii photosystem I PsaA-Asp648Arg (Chlamydomonas reinhardtii) (UniProt P12154).
Assay [2] addresses pea PsaA (Pisum sativum (pea), UniProt P05310 16-758). Nature of the assay: cryo-EM structure.
In assay [3] the target is pea PsaB (Pisum sativum (pea), UniProt P05311 13-734). Nature of the assay: cryo-EM structure.
Sequence of pea PsaB (P05311 13-734): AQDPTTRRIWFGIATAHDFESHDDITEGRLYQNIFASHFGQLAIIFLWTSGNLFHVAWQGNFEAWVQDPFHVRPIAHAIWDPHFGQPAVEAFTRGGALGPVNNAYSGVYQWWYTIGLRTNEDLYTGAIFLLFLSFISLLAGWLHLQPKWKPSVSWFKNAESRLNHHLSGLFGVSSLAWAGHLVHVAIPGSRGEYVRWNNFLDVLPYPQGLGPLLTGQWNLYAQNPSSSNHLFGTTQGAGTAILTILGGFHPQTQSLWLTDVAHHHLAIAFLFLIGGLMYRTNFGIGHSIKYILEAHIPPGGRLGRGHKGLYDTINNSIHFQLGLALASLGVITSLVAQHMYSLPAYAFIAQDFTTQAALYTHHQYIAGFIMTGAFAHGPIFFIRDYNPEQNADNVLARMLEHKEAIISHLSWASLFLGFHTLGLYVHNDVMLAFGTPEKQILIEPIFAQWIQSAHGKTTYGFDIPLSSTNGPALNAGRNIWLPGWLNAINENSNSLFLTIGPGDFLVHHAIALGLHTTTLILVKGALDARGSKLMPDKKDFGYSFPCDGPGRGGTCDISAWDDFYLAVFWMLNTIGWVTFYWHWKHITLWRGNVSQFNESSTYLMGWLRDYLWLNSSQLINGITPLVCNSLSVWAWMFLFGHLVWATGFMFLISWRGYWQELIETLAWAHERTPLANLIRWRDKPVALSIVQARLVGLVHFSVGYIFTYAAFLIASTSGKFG

Sequence of pea PsaA (P05310 16-758): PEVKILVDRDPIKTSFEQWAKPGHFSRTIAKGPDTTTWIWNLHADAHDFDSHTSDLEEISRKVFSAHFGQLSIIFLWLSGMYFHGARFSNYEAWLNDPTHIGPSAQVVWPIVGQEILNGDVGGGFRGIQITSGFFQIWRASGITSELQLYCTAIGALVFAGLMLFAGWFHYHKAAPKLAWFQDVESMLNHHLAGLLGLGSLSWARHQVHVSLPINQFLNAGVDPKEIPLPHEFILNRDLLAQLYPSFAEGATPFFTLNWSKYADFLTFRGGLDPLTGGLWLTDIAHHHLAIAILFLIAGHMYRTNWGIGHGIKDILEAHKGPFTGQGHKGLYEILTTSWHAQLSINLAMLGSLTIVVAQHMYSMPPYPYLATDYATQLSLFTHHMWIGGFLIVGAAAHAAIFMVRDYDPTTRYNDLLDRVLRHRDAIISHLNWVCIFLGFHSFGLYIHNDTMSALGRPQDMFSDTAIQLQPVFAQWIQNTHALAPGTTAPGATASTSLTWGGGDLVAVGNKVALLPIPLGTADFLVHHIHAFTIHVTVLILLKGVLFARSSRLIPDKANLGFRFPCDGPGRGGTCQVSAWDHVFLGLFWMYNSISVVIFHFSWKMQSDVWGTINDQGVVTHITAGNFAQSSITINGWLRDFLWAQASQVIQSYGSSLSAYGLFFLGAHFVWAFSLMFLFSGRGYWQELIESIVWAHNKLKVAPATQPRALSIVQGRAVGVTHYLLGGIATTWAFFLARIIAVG

The molecule “Chlamydomonas reinhardtii plastocyanin (natural protein)” returned a second-order rate constant of P700+ reduction by Pc (single flash absorption) in assay [1] of 6.54e+07 M⁻¹ s⁻¹.

B1: pea plastocyanin (natural protein, pea (Pisum sativum), UniProt P16002 70-168, looked up)
chain: VEVLLGASDGGLAFVPSSLEVSAGETIVFKNNAGFPHNVVFDEDEIPAGVDASKISMPEEDLLNAPGETYSVKLDAKGTYKFYCSPHQGAGMVGQVTVN
With B1, the binding result in assay [2] and in assay [3] was “binds” in each case.
